# Results published in patent US20240174740A1 (EYEPOINT PHARMACEUTICALS, published 2024).
# B1: HC2:LC1 (antibody, human IgG4 S228P, kappa, V domains shown)
# VH: EVQLVESGGGLVQPGGSLRLSCAASGFTFNANAMNWVRQAPGKGLEWVGRIRTKSNNYATYYAGSVKDRFTISRDDSKNSLYLQMNSLKTEDTAVYYCVRDYYGSSAWITYWGQGTLVTVSS
# VL: DVVMTQSPSFLSASVGDRVTITCKASQHVGTAVAWYQQRPGKAPKLLIYWASTRHTGVPSRFSGSGSGTEFTLTISSLQPEDFATYFCQQYSSYPFTFGGGTKLEIKR
# notes: Human IgG4 (S228P) heavy chain HC2 (VH2) and human kappa light chain LC1 (VL1); also called humanized monoclonal antibody specific for HPTP-β
# Experiments:
# VEGF = target: T1, VEGF (UniProt P15692-4 27-191, limits assumed); assay: Biacore SPR, scouting; antibody immobilised on CM5 chip, VEGF as analyte
# T1 construct: also called vascular endothelial growth factor
# Procedure: For analysis of binding of the antibodies to VEGF, the antibodies were immobilized on the surface of the chip by direct immobilization using EDC/NHS coupling chemistry on flow cell 2 of the CM5 chip. Unoccupied sites were blocked with 1M ethanolamine. The analyte (VEGF) was flowed over the chip at a single analyte concentration at a time. The binding of analyte to the ligand was monitored in real time to obtain on (kₐ) and off (kd) rates. The equilibrium constant (KD) was calculated from the observed kₐ and kd.
# (§1) Chi square analysis was carried out between the actual sensorgram and the sensorgram generated from the BIAnalysis software to confirm the accuracy of the analysis; values of 1-2 were considered accurate and below 1 highly accurate.
# [1] = target: T2, poly-histidine tagged HPTP-β extracellular domain (ECD) 1/2 (human, UniProt P23467 23-730, limits assumed); assay: Biacore SPR, scouting at 10 nM analyte; His-tagged HPTP-β 1/2 ECD captured by anti-His, antibody as analyte
# T2 construct: domain: extracellular domain (ECD) 1/2; Captured on the Biacore chip through goat anti-His antibody; also called His-tagged ligand HPTP-β 1/2 ECD; not shown: poly-histidine tag
# T2 sequence (looked up): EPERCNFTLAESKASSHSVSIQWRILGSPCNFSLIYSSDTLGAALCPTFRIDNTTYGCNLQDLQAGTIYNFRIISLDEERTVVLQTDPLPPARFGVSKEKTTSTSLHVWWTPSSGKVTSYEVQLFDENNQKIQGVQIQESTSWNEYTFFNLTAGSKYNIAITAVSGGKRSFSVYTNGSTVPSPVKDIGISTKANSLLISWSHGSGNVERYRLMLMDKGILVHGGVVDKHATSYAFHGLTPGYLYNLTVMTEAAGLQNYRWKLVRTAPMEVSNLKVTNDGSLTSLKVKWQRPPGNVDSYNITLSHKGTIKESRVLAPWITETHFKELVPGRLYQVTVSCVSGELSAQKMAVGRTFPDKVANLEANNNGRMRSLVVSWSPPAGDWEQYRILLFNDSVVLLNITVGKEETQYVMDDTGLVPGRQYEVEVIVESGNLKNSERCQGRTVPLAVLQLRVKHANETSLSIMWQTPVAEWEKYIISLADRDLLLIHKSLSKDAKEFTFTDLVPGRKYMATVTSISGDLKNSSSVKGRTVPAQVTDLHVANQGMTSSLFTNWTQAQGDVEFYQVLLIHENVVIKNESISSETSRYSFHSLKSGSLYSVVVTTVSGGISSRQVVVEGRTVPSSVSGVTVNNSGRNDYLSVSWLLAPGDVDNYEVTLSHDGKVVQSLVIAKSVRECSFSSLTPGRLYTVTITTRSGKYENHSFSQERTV
# Procedure: (§2) The assay buffer contained 10 mM HEPES buffer (pH 7.4), 150 mM NaCl, 3 mM EDTA, and 0.05% P20 (polyoxyethylenesorbitan). […] The conjugation buffer contained 10 mM sodium acetate buffer (pH 5). A flow rate of 5 μL/minute was used for capturing ligand. A flow rate of 30 μL/minute was used for kinetic analysis.
# (§3) For analysis of binding of antibodies to HPTP-β, poly-histidine tagged HPTP-β extracellular domain (ECD) 1/2 was immobilized on a chip surface via anti-His antibodies. Goat anti-His antibody was first immobilized on the surface of the chip by direct immobilization using EDC/NHS (N-ethyl-N′-(3-dimethyl aminopropyl carbodiimide)/N-hydroxy succinamide) coupling chemistry on flow cell 2 of the CM5 (Carboxymethylated dextran coated) chip. Unoccupied sites were blocked with 1M ethanolamine. The His-tagged ligand HPTP-β 1/2 ECD was captured at a response unit (RU) of 50. The analyte (antibody) was flowed over the chip at a single analyte concentration at a time. The binding of analyte to the ligand was monitored in real time to obtain on (kₐ) and off (kd) rates. The equilibrium constant (KD) was calculated from the observed kₐ and kd.
# as §1
# [2] = target: T2, poly-histidine tagged HPTP-β …; assay: Biacore SPR, full kinetics at 0-10 nM analyte; His-tagged HPTP-β 1/2 ECD captured by anti-His, antibody as analyte
# Procedure: as §2, §3
# Chi square analysis was carried out between the actual sensorgram and the sensorgram generated from the BNAnalysis software to confirm the accuracy of the analysis; values of 1-2 were considered accurate and below 1 highly accurate.
# T1 sequence (P15692 other isoform, or with tags, fused parts or gaps limits assumed): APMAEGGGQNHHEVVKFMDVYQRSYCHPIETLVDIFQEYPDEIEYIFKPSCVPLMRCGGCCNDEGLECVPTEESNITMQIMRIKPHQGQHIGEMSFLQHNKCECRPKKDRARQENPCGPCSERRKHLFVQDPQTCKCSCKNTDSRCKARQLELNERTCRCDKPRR
binder,measurement,setting,value
B1,binding result,VEGF,no binding (tested: 10 nM of analyte)
same,Kd,[1],0.0732 nM
same,Kd,[2],0.121 nM
